Experiments:
[1] = biological target: T1, mCXCL1 displayed on the surface of yeast as N-terminal fusion of Aga2p (mouse, UniProt P12850); assay: flow cytometry on cells; CXC chemokine displayed on yeast (CXCL-Aga2p) titrated with soluble SA-antibody fusions bearing His6, 10 pM to 20 μM, overnight at 4 °C, PBSA washes, anti-His6 detection, binding/display MFI; conditions: one partner purified
T1 construct: murine CXCL1, active processed form; Construct CXCL-(G3)-c-myc-Aga2p; also called ^NCXCL-Aga2p^C; not shown: c-myc, C-terminal, kept; Aga2p, C-terminal, kept

[2] = biological target: T2, mCXCL2 displayed on the surface of yeast as N-terminal fusion of Aga2p (mouse, UniProt P10889); assay: as above; conditions: one partner purified
T2 construct: murine CXCL2, active processed form; Construct CXCL-(G3)-c-myc-Aga2p; also called ^NCXCL-Aga2p^C; not shown: c-myc, C-terminal, kept; Aga2p, C-terminal, kept

[3] = biological target: T3, mCXCL3 displayed on the surface of yeast as N-terminal fusion of Aga2p (mouse, UniProt Q6W5C0); assay: as above; conditions: one partner purified
T3 construct: murine CXCL3, active processed form; Construct CXCL-(G3)-c-myc-Aga2p; also called ^NCXCL-Aga2p^C; not shown: c-myc, C-terminal, kept; Aga2p, C-terminal, kept

[4] = biological target: T4, mCXCL5 displayed on the surface of yeast as N-terminal fusion of Aga2p (mouse, UniProt P50228); assay: as above; conditions: one partner purified
T4 construct: murine CXCL5, active processed form; Construct CXCL-(G3)-c-myc-Aga2p; also called ^NCXCL-Aga2p^C; not shown: c-myc, C-terminal, kept; Aga2p, C-terminal, kept

[5] = biological target: T5, wild-type hCXCL1 displayed on the surface of yeast as N-terminal fusion of Aga2p (human, UniProt P09341); assay: as above; conditions: one partner purified
T5 construct: human CXCL1, active processed form; Construct CXCL-(G3)-c-myc-Aga2p; also called hCXCL1^WT; ^NhCXCL1^WT-Aga2p^C; not shown: c-myc, C-terminal, kept; Aga2p, C-terminal, kept

[6] = biological target: T6, biotinylated hCXCL8 (^NCXCL-G2-AviTag^C) (human, UniProt P10145, biotin on the defined lysine of the AviTag (BirA)); assay: flow cytometry on cells; competition: biotinylated chemokine at its EC50 with varying antagonist (0.3 nM to 3 μM; 0.003 to 30 μM for SA157*) on HEK293 cells expressing CXCR1 or CXCR2; the antagonist and the chemokine; conditions: both partners purified
T6 construct: human CXCL8, active form; Which processed form of CXCL8 (72 or 77 residues) was made is only in Supplementary Data 1; not shown: AviTag, C-terminal, kept; Fc (murine IgG2 CH2 and CH3), N-terminal, cleaved; His6, N-terminal, cleaved

chemotactic factor C5a = biological target: T7, chemotactic factor C5a (Homo sapiens (assumed; species not …, UniProt P01031); assay: flow cytometry on cells; polyreactivity test: scFv displayed on yeast, single concentration (2 μM) of soluble protein, detection with streptavidin or anti-His6; conditions: one partner purified
T7 construct: C5a, the chemotactic fragment cut from complement C5; Detected with streptavidin or anti-His6

CCL20 = biological target: T8, CCL20 (Homo sapiens (assumed; species not …, UniProt P78556); assay: as above; conditions: one partner purified
T8 construct: CC chemokine CCL20; Detected with streptavidin or anti-His6

CCL22 = biological target: T9, CCL22 (human, UniProt O00626); assay: as above; conditions: one partner purified
T9 construct: CC chemokine CCL22; Detected with streptavidin or anti-His6

CCL28 = biological target: T10, CCL28 (human, UniProt Q9NRJ3); assay: as above; conditions: one partner purified
T10 construct: CC chemokine CCL28; Detected with streptavidin or anti-His6

[7] = biological target: T11, hCXCL1 fused to the N-terminus of mouse serum albumin (human, UniProt P09341); assay: flow cytometry on cells; scFv displayed on yeast (Aga2p fusion) titrated with soluble CXCL-SA fusions bearing His6, 10 pM to 2 μM, overnight at 4 °C, PBSA washes, anti-His6 detection, binding/display MFI; conditions: one partner purified
T11 construct: human CXCL1, active protein form; CXCL-SA fusions eluted as dimers to tetramers on SEC; also called ^NCXCL-SA^C; source: HEK293 (suspension-adapted), transient transfection, purified (Ni Sepharose excel, SEC); not shown: mouse serum albumin, C-terminal, kept; His6, C-terminal, kept

[8] = biological target: T12, mCXCL1 fused to the N-terminus of mouse serum albumin (mouse, UniProt P12850); assay: as above; conditions: one partner purified
T12 construct: murine CXCL1, active protein form; also called ^NCXCL-SA^C; source: HEK293 (suspension-adapted), transient transfection, purified (Ni Sepharose excel, SEC); not shown: mouse serum albumin, C-terminal, kept; His6, C-terminal, kept

B1: SA138, mouse serum albumin fused to the CK138 single-chain variable antibody fragment (scFv, V domains shown)
VH: EVQLVESDGGLVQPGGSLRLSCAASGFNLSYYGMHWVRQAPGKGLEWVAYIASYPGYTSYADSVKGRFTISADTSKNTAYLQMNSLRAEDTAVYYCARSGYSYSPYYSWFSAGMNYWGQGALVTVSS
VL: AIQMTRSPSSLSASVGDRVTITCRASQYHDGSAAWYQQKPGKAPKLLIYGASYLYSGVPSRFSGSRSGTDFTLTISSLQPEDFATYYCQQSSYSLITFGQGTKVEIK
notes: VL of CK138, as in m2; linker between VL and VH; the scFv was amplified from the pCT-CON vector; VH of CK138, as in m2; Construct SA-(G4S)3-scFv-G4S-His6; also called ^NSA-scFv^C; source: HEK293 (suspension-adapted), transient transfection, purified (Ni Sepharose excel, SEC); not shown: mouse serum albumin, N-terminal, kept; His6, C-terminal, kept
binding result [1]: binds | binding result [2]: binds | binding result [3]: binds | binding result [4]: binds | Kd [5]: ~100 nM | binding result [6]: binds

B2: SA157*, separate mouse serum albumin fusions of the VL and VH domains of CK157 mixed in equimolar amounts (other)
VH: EVQLVESGGGLVQPGGSLRLSCAASGSNPYYYGGTHWVRQAPGEELEWVASIGSYPGYTDYADSVKGRFTISADTSKNTAYLQMNSLRAEDTAVYYCARHYYWYDATDYWGQGTLVTVSS
VL: DIQMTQSPSSLSASVGDRVTITCRASQSYGGVAWYQQKPGKAPKLLIYSASYLYSGVPSRFSGSRSGTDFTLTISSLQPEDFATYYCQQPSHLITFGQGTEVEIK
notes: VL of CK157, as in m3; VH of CK157, as in m3; Constructs SA-(G4S)3-VL-G4S-His6 and SA-(G4S)3-VH-G4S-His6; not a single chain with a linker; also called ^NSA-VL^C and ^NSA-VH^C; not shown: mouse serum albumin, N-terminal, kept; His6, C-terminal, kept
Kd [5]: ~1500 nM | binding result [6]: binds

B3: CK157 single-chain variable antibody fragment, displayed on yeast (scFv, V domains shown)
VH: B2 VH
VL: B2 VL
notes: VL of CK157 (CK2 lineage, made by combinatorial site-directed mutagenesis); flexible linker between VL and VH; VH of CK157; Construct Aga2p-HA-(G4S)3-VL-linker-VH-c-myc; VL-VH orientation; not shown: Aga2p, N-terminal, kept; HA, N-terminal, kept; c-myc, C-terminal, kept
binding result (chemotactic factor C5a): binds | binding result (CCL20): binds | binding result (CCL22): binds | binding result (CCL28): binds

B4: CK129 single-chain variable antibody fragment, displayed on yeast (scFv, V domains shown)
VH: EVQLVESGGGLVQPGGSLRLSCAASGFNISSYGSMHWVRQAPGKGLEWVASIYPYSSSTYYADSVKGRFTISADTSKNTAYLQMNSLRAEDTAVYYCARGYGPWYAYSYFALDYWGQGTLVTVSS
VL: DIQMTQSPSPLSASVGDRVTITCRASQYGGYVAWYQQKPGKAPKLLIYGASLLYSGVPSRFSGGRSGTDFTLTISSLQPEDFATYYCQRGHALITFGQGTKVEIE
notes: VL of CK129 (CK4 lineage, synthetic library G); flexible linker between VL and VH; VH of CK129; Construct Aga2p-HA-(G4S)3-VL-linker-VH-c-myc; VL-VH orientation; not shown: Aga2p, N-terminal, kept; HA, N-terminal, kept; c-myc, C-terminal, kept
Kd [7]: 0.79 nM | Kd [8]: 0.93 nM

B5: SA129, mouse serum albumin fused to the CK129 single-chain variable antibody fragment (scFv, V domains shown)
VH: B4 VH
VL: B4 VL
notes: VL of CK129, as in m1; linker between VL and VH; the scFv was amplified from the pCT-CON vector; VH of CK129, as in m1; Construct SA-(G4S)3-scFv-G4S-His6; also called ^NSA-scFv^C; source: HEK293 (suspension-adapted), transient transfection, purified (Ni Sepharose excel, SEC); not shown: mouse serum albumin, N-terminal, kept; His6, C-terminal, kept
binding result [3]: no binding (tested: up to 20 μM (methods)) | Kd [5]: ~2.5 nM

— PMC5899157, “Directed evolution of broadly crossreactive chemokine-blocking antibodies efficacious in arthritis” (Nature Communications, 2018)
